Assay results reported in PMC6293278.

Molecular target: Taxol-stabilized microtubules (polymerized purified tubulin) (UniProt P02550)
Assay: Taxol-stabilized microtubule co-sedimentation assay
Settings: 3:1 MT:MAP1S LC ratio; MAP1S LC pre-incubated with CDKL5 (WT according to the lane labels of panel E; the key of panel F prints CDKL5 KD); n = 3 technical …; parent: est. 13; read off a plot

other: Soluble MAP1S LC (%): 4.2%
Substance: Strep(II)-MAP1S LC WT (microtubule-associated protein 1S light chain) (from UniProt P0C5W1) S786A; S812A
